Results on two molecules are retold here after paper PMC5041093, “Acidic Residues Control the Dimerization of the N-terminal Domain of Black Widow Spiders’ Major Ampullate Spidroin 1” (Scientific Reports, 2016).

The target in data set [1] is NRN1_(L.h.) variant E114Q (Latrodectus hesperus). Nature of the data set: NMR 15N relaxation (T1, T2; rotational correlation time); 15N-labelled E114Q, 22 mM sodium phosphate pH 7.2 without salt, 10% D2O; molecular weight estimated from the rotational correlation time.
Data set [2] has the same target. Nature of the data set: SEC-MALS; Superdex 200 10/300 GL, 20 mM sodium phosphate pH 7.2 without NaCl, 71.2 μM protein injected; monomer to dimer. Background: SEC sorts molecules by how far they enter the pores of the column.
Data set [3] concerns the molecule itself. Nature of the data set: SEC-MALS; Superdex 200 10/300 GL, 20 mM sodium phosphate pH 6.0 without NaCl, 71.2 μM protein injected; monomer to dimer.

By stoichiometry N is commonly meant a count of units in the complex or per binding partner. For the molecule “NRN1_(L.h.) variant E114Q (domain or fragment)”, the stoichiometry N in data set [1] and in data set [2] was 2 each time.

B1: amino-terminal domain of Latrodectus hesperus major ampullate spidroin 1, wildtype (domain or fragment)
chain: QANTPWSSKANADAFINSFISAASNTGSFSQDQMEDMSLIGNTLMAAMDNMGGRITPSKLQALDMAFASSVAEIAASEGGDLGVTTNAIADALTSAFYQTTGVVNSRFISEIRSLIGMFAQASANDVYASAGS
notes: non-repetitive amino-terminal domain (NRN1) of major ampullate spidroin 1 (MaSp1), Latrodectus hesperus; also called wtNRN1_(L.h.); NRN1_(L.h.); source: E. coli BL21 (DE3), purified (nickel-NTA, SEC)
In the case of B1, the “stoichiometry N” value in data set [3] came out at 2.
